B1: Apoptotic protease-activating factor 1 (Homo sapiens), O14727 (parent)
chain: MDAKARNCLLQHREALEKDIKTSYIMDHMISDGFLTISEEEKVRNEPTQQQRAAMLIKMILKKDNDSYVSFYNALLHEGYKDLAALLHDGIPVVSSSSGKDSVSGITSYVRTVLCEGGVPQRPVVFVTRKKLVNAIQQKLSKLKGEPGWVTIHGMAGCGKSVLAAEAVRDHSLLEGCFPGGVHWVSVGKQDKSGLLMKLQNLCTRLDQDESFSQRLPLNIEEAKDRLRILMLRKHPRSLLILDDVWDSWVLKAFDSQCQILLTTRDKSVTDSVMGPKYVVPVESSLGKEKGLEILSLFVNMKKADLPEQAHSIIKECKGSPLVVSLIGALLRDFPNRWEYYLKQLQNKQFKRIRKSSSYDYEALDEAMSISVEMLREDIKDYYTDLSILQKDVKVPTKVLCILWDMETEEVEDILQEFVNKSLLFCDRNGKSFRYYLHDLQVDFLTEKNCSQLQDLHKKIITQFQRYHQPHTLSPDQEDCMYWYNFLAYHMASAKMHKELCALMFSLDWIKAKTELVGPAHLIHEFVEYRHILDEKDCAVSENFQEFLSLNGHLLGRQPFPNIVQLGLCEPETSEVYQQAKLQAKQEVDNGMLYLEWINKKNITNLSRLVVRPHTDAVYHACFSEDGQRIASCGADKTLQVFKAETGEKLLEIKAHEDEVLCCAFSTDDRFIATCSVDKKVKIWNSMTGELVHTYDEHSEQVNCCHFTNSSHHLLLATGSSDCFLKLWDLNQKECRNTMFGHTNSVNHCRFSPDDKLLASCSADGTLKLWDATSANERKSINVKQFFLNLEDPQEDMEVIVKCCSWSADGARIMVAAKNKIFLFDIHTSGLLGEIHTGHHSTIQYCDFSPQNHLAVVALSQYCVELWNTDSRSKVADCRGHLSWVHGVMFSPDGSSFLTSSDDQTIRLWETKKVCKNSAVMLKQEVDVVFQENEVMVLAVDHIRRLQLINGRTGQIDYLTEAQVSCCCLSPHLQYIAFGDENGAIEILELVNNRIFQSRFQHKKTVWHIQFTADEKTLISSSDDAEIQVWNWQLDKCIFLRGHQETVKDFRLLKNSRLLSWSFDGTVKVWNIITGNKEKDFVCHQGTVLSCDISHDATKFSSTSADKTAKIWSFDLLLPLHELRGHNGCVRCSAFSVDSTLLATGDDNGEIRIWNVSNGELLHLCAPLSEEGAATHGGWVTDLCFSPDGKMLISAGGYIKWWNVVTGESSQTFYTNGTNLKKIHVSPDFKTYVTVDNLGILYILQTLE
B2: Caspase-9 (Homo sapiens), P55211 (parent)
chain: MDEADRRLLRRCRLRLVEELQVDQLWDALLSRELFRPHMIEDIQRAGSGSRRDQARQLIIDLETRGSQALPLFISCLEDTGQDMLASFLRTNRQAAKLSKPTLENLTPVVLRPEIRKPEVLRPETPRPVDIGSGGFGDVGALESLRGNADLAYILSMEPCGHCLIINNVNFCRESGLRTRTGSNIDCEKLRRRFSSLHFMVEVKGDLTAKKMVLALLELAQQDHGALDCCVVVILSHGCQASHLQFPGAVYGTDGCPVSVEKIVNIFNGTSCPSLGGKPKLFFIQACGGEQKDHGFEVASTSPEDESPGSNPEPDATPFQEGLRTFDQLDAISSLPTPSDIFVSYSTFPGFVSWRDPKSGSWYVETLDDIFEQWAHSEDLQSLLLRVANAVSVKGIYKQMPGCFNFLRKKLFFKTS

Variants of: B1
Details: with casp9_human CASP9, P55211

Variant | effect of a mutation on the interaction
D27A | disrupting interaction
S31A | decreasing interaction
E40A | disrupting interaction

Variants of: B2
Details: with apaf_human APAF1, O14727

Variant | effect of a mutation on the interaction
MDEADRRLLRRCALRLVEELQVDQLWDALLSRELFRPHMIEDIQRAGSGSRRDQARQLIIDLETRGSQALPLFISCLEDTGQDMLASFLRTNRQAAKLSKPTLENLTPVVLRPEIRKPEVLRPETPRPVDIGSGGFGDVGALESLRGNADLAYILSMEPCGHCLIINNVNFCRESGLRTRTGSNIDCEKLRRRFSSLHFMVEVKGDLTAKKMVLALLELAQQDHGALDCCVVVILSHGCQASHLQFPGAVYGTDGCPVSVEKIVNIFNGTSCPSLGGKPKLFFIQACGGEQKDHGFEVASTSPEDESPGSNPEPDATPFQEGLRTFDQLDAISSLPTPSDIFVSYSTFPGFVSWRDPKSGSWYVETLDDIFEQWAHSEDLQSLLLRVANAVSVKGIYKQMPGCFNFLRKKLFFKTS [R13A] | disrupting interaction
MDEADRRLLRRCRLRLVEELQVDQLWDALLSRELFRPHMIEDIQRAGSGSRRDQAAQLIIDLETRGSQALPLFISCLEDTGQDMLASFLRTNRQAAKLSKPTLENLTPVVLRPEIRKPEVLRPETPRPVDIGSGGFGDVGALESLRGNADLAYILSMEPCGHCLIINNVNFCRESGLRTRTGSNIDCEKLRRRFSSLHFMVEVKGDLTAKKMVLALLELAQQDHGALDCCVVVILSHGCQASHLQFPGAVYGTDGCPVSVEKIVNIFNGTSCPSLGGKPKLFFIQACGGEQKDHGFEVASTSPEDESPGSNPEPDATPFQEGLRTFDQLDAISSLPTPSDIFVSYSTFPGFVSWRDPKSGSWYVETLDDIFEQWAHSEDLQSLLLRVANAVSVKGIYKQMPGCFNFLRKKLFFKTS [R56A] | disrupting interaction
MDEADRRLLRACRLRLVEELQVDQLWDALLSRELFRPHMIEDIQRAGSGSRRDQARQLIIDLETRGSQALPLFISCLEDTGQDMLASFLRTNRQAAKLSKPTLENLTPVVLRPEIRKPEVLRPETPRPVDIGSGGFGDVGALESLRGNADLAYILSMEPCGHCLIINNVNFCRESGLRTRTGSNIDCEKLRRRFSSLHFMVEVKGDLTAKKMVLALLELAQQDHGALDCCVVVILSHGCQASHLQFPGAVYGTDGCPVSVEKIVNIFNGTSCPSLGGKPKLFFIQACGGEQKDHGFEVASTSPEDESPGSNPEPDATPFQEGLRTFDQLDAISSLPTPSDIFVSYSTFPGFVSWRDPKSGSWYVETLDDIFEQWAHSEDLQSLLLRVANAVSVKGIYKQMPGCFNFLRKKLFFKTS [R11A] | decreasing interaction
MDEADRRLLRRCRLRLVEELQVDQLWDALLSRELFRPHMIEDIQRAGSGSRADQARQLIIDLETRGSQALPLFISCLEDTGQDMLASFLRTNRQAAKLSKPTLENLTPVVLRPEIRKPEVLRPETPRPVDIGSGGFGDVGALESLRGNADLAYILSMEPCGHCLIINNVNFCRESGLRTRTGSNIDCEKLRRRFSSLHFMVEVKGDLTAKKMVLALLELAQQDHGALDCCVVVILSHGCQASHLQFPGAVYGTDGCPVSVEKIVNIFNGTSCPSLGGKPKLFFIQACGGEQKDHGFEVASTSPEDESPGSNPEPDATPFQEGLRTFDQLDAISSLPTPSDIFVSYSTFPGFVSWRDPKSGSWYVETLDDIFEQWAHSEDLQSLLLRVANAVSVKGIYKQMPGCFNFLRKKLFFKTS [R52A] | decreasing interaction
